Source: paper PMC10032657

Molecular target: anti-CD52 IgG1-RGY (alemtuzumab with E345R, E430G and S440Y)
Experiment: native MS; anti-CD52 IgG1-RGY at a total IgG1 concentration of 2 µM, no peptide; 150 mM ammonium acetate pH 7.5; monomer and hexamer in solution

B1: anti-CD52 IgG1-RGY (alemtuzumab with E345R, E430G and S440Y) (antibody, V domains shown)
VH: QVQLQESGPGLVRPSQTLSLTCTVSGFTFTDFYMNWVRQPPGRGLEWIGFIRDKAKGYTTEYNPSVKGRVTMLVDTSKNQFSLRLSSVTAADTAVYYCAREGHTAAPFDYWGQGSLVTVSS
VL: DIQMTQSPSSLSASVGDRVTITCKASQNIDKYLNWYQQKPGKAPKLLIYNTNNLQTGVPSRFSGSGSGTDFTFTISSLQPEDIATYYCLQHISRPRTFGQGTKVEIK
stoichiometry N: 6
